B2: McrC endonuclease (enzyme, Escherichia coli, UniProt P15006 1-348, looked up)
chain: MEQPVIPVRNIYYMLTYAWGYLQEIKQANLEAIPGNNLLDILGYVLNKGVLQLSRRGLELDYNPNTEIIPGIKGRIEFAKTIRGFHLNHGKTVSTFDMLNEDTLANRIIKSTLAILIKHEKLNSTIRDEARSLYRKLPGISTLHLTPQHFSYLNGGKNTRYYKFVISVCKFIVNNSIPGQNKGHYRFYDFERNEKEMSLLYQKFLYEFCRRELTSANTTRSYLKWDASSISDQSLNLLPRMETDITIRSSEKILIVDAKYYKSIFSRRMGTEKFHSQNLYQLMNYLWSLKPENGENIGGLLIYPHVDTAVKHRYKINGFDIGLCTVNLGQEWPCIHQELLDIFDEYLK
notes: McrC, endonuclease of the McrBC restriction system, Escherichia coli; Dimer in the complex; Chain N of PDB 6HZ4 holds only residues 193-343 of the second copy; source: E. coli BL21(AI), purified (Ni-NTA, MonoS)

Legend:
[1] = target: MantGMPPNP (GNP); test: Mant-nucleotide fluorescence time trace (MantGMPPNP + buffer, then protein added); details: protein added at about 160 s, signal before protein est. 26000, parent: est. 40000
[2] = target: B2; test: cryo-EM structure; McrBΔN and McrC mixed 4:1 with GTP and MgCl2, complex purified by SEC; grids with 4.0 mg/ml McrBΔNC in 10 mM Tris-HCl pH 7.4, 2.0 mM GNP, 0.10 M NaCl, 5.0 mM MgCl2; details: both partners purified
[3] = target: the molecule itself; test: as above
[4] = value is the mean of the trace after addition, read off a plot

Work on “McrB (wild type) (from UniProt P15005) R349A” yielded a response ([1]; trace hidden under R348A, which the legend says it overlaps, read off a …) of 28000 CPS/µAmps.

“McrB (wild type) (from UniProt P15005) R348A” showed a response [1, 4] of 28000 CPS/µAmps.

Work on “McrB (wild type) (from UniProt P15005) E298A” yielded a response [1, 4] of 39000 CPS/µAmps.

B1: McrBΔN (McrB construct lacking the first 161 residues; AAA+ domain of McrB) (domain or fragment, Escherichia coli, UniProt P15005 162-459, looked up)
chain: MSKTESYCLEDALNDLFIPETTIETILKRLTIKKNIILQGPPGVGKTFVARRLAYLLTGEKAPQRVNMVQFHQSYSYEDFIQGYRPNGVGFRRKDGIFYNFCQQAKEQPEKKYIFIIDEINRANLSKVFGEVMMLMEHDKRGENWSVPLTYSENDEERFYVPENVYIIGLMNTADRSLAVVDYALRRRFSFIDIEPGFDTPQFRNFLLNKKAEPSFVESLCQKMNELNQEISKEATILGKGFRIGHSYFCCGLEDGTSPDTQWLNEIVMTDIAPLLEEYFFDDPYKQQKWTNKLLGDS
notes: McrB, AAA+ GTPase of the McrBC restriction system, Escherichia coli; Forms a hexameric ring in the structure; two rings per tetradecamer; also called McrB∆N; source: E. coli BL21(AI), purified (Ni-NTA, MonoQ, Superdex200)
B1: binds [2].

B2 was tested, and the “stoichiometry N” value [3] was 2.

Reference: publication PMC6624300, “Structure-based mechanism for activation of the AAA+ GTPase McrB by the endonuclease McrC” (Nature Communications, 2019)
